Columns and labels:
Test in all cases: cell-based or functional assay
[1] = molecular target: T1, HA of virus A/Wisconsin/67/2005 (H3N2) (influenza A virus (H3N2))
[2] = molecular target: T2, HA of virus A/Johannesburg/33/94 (H3N2) (influenza A virus (H3N2))
[3] = molecular target: T3, HA of virus A/Chick/Germany/N/49 (H10) (influenza A virus (H10))
[4] = molecular target: T4, HA of virus A/Mallard/Netherlands/12/2000 (H7N3) (influenza A virus (H7N3))
[5] = molecular target: HA of virus A/New Caledonia/20/1999 (H1N1) (influenza A virus (H1N1))
[6] = molecular target: HA of virus A/Brisbane/59/2007 (H1N1) (influenza A virus (H1N1))
[7] = molecular target: T5, HA of virus A/Hiroshima/52/2005 (H3N2) (influenza A virus (H3N2))
[8] = molecular target: T6, HA of virus A/Panama/2000/1999 (H3N2) (influenza A virus (H3N2))
[9] = molecular target: HA of virus A/Solomon Islands/IVR-145 (H1N1) (influenza A virus (H1N1))
[10] = molecular target: T1, HA of virus A/Wisconsin/67/2005 (H3N2); remark: listed apart in the source
[11] = molecular target: T2, HA of virus A/Johannesburg/33/94 (H3N2); remark: listed apart in the source
[12] = molecular target: T3, HA of virus A/Chick/Germany/N/49 (H10); remark: listed apart in the source
[13] = molecular target: T4, HA of virus …; remark: listed apart in the source
[14] = molecular target: T5, HA of virus A/Hiroshima/52/2005 (H3N2); remark: listed apart in the source
[15] = molecular target: T6, HA of virus A/Panama/2000/1999 (H3N2); remark: listed apart in the source

B1: CR8041 (antibody, V domains shown)
VH: QVQLVQSGAEVKKPGASVKVSCQASGYTFTSFGLSWVRQAPGQGPEWMGWISAYNGEIKYAQKFQGRVSMTTDTSTRTAYMEVRSLRPDDTAVYYCAREPPLYFSSWSLDF
VL: EIVLTQSPGTLSLSPGERATLSCRASQSVSSNYLAWFQQKPGQAPRLLIYGASRRATGIPDRFSGSGSGTDFTLTISRLEPEDFAVYYCQQYDSSPRT
- Neutralization titer SK50 [1]: 3.99 µg/mL
- Neutralization titer SK50 [2]: 1.69 µg/mL
- Neutralization titer SK50 [3]: 25 µg/mL
- Neutralization titer SK50 [4]: 1.1 µg/mL
- Neutralization titer SK50 [5]: > 40 µg/mL
- Neutralization titer SK50 [6]: > 40 µg/mL
- Neutralization titer SK50 [7]: 4.75 µg/mL
- Neutralization titer SK50 [8]: 2.99 µg/mL
- Neutralization titer SK50 [9]: > 40 µg/mL
- SK50 titer [10]: 3.3 µg/mL
- SK50 titer [11]: 1.6 µg/mL
- SK50 titer [12]: 37.2 µg/mL
- SK50 titer [13]: 38 µg/mL
- SK50 titer [14]: 3.5 µg/mL
- SK50 titer [15]: 5 µg/mL

Reference: patent US20130309248A1 (CRUCELL HOLLAND B V, published 2013)
